One substance from patent US20210063414A1, “METHODS FOR PREVENTING AND/OR TREATING BONE LOSS CONDITIONS BY MODULATING IRISIN” (Dana-Farber Cancer Institute, Inc., priority 2018, published 2021) can be followed below.

In assay [1] the target is T1, MLO-Y4 cell surface proteins (Mus musculus, UniProt P08249).
T1 construct: endogenous in cells; host or cells: MLO-Y4
T1 sequence (P08249 25-338): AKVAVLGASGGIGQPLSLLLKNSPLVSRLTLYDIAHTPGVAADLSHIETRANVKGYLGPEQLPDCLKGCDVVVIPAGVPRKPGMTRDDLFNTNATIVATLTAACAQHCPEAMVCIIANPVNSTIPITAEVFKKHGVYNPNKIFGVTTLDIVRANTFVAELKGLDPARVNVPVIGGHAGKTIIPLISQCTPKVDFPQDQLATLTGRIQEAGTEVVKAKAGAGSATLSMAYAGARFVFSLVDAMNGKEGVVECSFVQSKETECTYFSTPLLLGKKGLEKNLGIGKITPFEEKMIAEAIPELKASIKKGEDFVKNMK
Put plainly: Crosslinking/co-immunoprecipitation/mass spectrometry (TMT quantitative proteomics) to identify irisin receptors. The class given is binding. The conditions noted are these: co-precipitated protein Mdh2 (MDHM_MOUSE). Put shortly: (§1)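 Relative protein abundance came from 6-plex TMT MS3 quantitation on an Orbitrap Fusion Lumos, after in-gel trypsin digestion of Coomassie-stained SDS-PAGE lanes. Input was a Ni-NTA pulldown (250 mM imidazole elution) of lysates from murine MLO-Y4 cells. These cells were treated on ice with His-tagged irisin or adipsin (10 nM, 20 min) in serum-free medium, then crosslinked with 1.5 mM DTSSP for 30 min.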

The target in assay [2] is T2, MLO-Y4 cell surface proteins (Mus musculus, UniProt Q9D3P1).
T2 construct: endogenous in cells; host or cells: MLO-Y4
T2 sequence (Q9D3P1 1-638): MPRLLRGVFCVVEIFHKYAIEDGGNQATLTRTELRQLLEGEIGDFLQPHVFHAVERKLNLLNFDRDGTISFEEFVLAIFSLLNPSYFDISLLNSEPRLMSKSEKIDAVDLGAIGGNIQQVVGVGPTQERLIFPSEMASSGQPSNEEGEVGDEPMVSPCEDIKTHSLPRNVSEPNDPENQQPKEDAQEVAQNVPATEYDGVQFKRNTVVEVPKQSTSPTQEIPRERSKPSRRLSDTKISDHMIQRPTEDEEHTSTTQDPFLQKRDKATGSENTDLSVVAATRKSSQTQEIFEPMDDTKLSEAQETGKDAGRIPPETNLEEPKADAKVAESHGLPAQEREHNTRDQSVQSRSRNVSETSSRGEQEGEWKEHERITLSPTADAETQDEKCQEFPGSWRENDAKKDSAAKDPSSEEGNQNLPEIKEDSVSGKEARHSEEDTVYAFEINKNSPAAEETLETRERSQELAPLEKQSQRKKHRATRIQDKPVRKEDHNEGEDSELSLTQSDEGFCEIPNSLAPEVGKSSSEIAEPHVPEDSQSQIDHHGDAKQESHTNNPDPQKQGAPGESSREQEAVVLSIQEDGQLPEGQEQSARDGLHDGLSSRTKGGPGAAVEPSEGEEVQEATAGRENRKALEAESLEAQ
The assay is described as above. Format: binding. The conditions noted are these: co-precipitated protein Tchhl1 (TCHL1_MOUSE). In a few lines: as §1

For the substance adipsin, the TMT signal-to-noise ratio worked out at 2557.03 in assay [1] and 1810.14 in assay [2].
